The test deals with T1, human GPVI on platelets (human, UniProt Q9HCN6 21-339).
T1 sequence (looked up): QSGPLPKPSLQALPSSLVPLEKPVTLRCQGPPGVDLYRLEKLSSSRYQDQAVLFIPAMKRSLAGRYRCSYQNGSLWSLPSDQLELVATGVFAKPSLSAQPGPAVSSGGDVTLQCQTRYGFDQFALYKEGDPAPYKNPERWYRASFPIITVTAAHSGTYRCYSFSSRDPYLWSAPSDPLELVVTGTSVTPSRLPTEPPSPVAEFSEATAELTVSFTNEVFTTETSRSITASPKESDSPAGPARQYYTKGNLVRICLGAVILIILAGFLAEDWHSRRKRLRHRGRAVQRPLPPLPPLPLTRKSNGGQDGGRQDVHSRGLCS
The experiment in a line: cell-based or functional assay.

Numbering of substitutions follows the chain as printed. Values joined by “and” are separate entries in the source; they are usually repeats but may differ in a detail not shown here. Equal entries are not always repeated.

The values below come from EP2336188A1 (Sanofi-Aventis, dated 2011).

B1: humanized anti-GPVI Fab VL1 with VH2 (Fab, V domains shown)
VH: QVQLQESGPGLVAPSQSLSITCTVSGFSLTGYGVNWVRQPPSRGLEWLGMIWGDGSTDYQSTLKSRLSISKDNSKSQVFLKMNSLTTDDTARYYCARDLPMDYWGQGTSVTVSS
VL: DIQMTQSPSSLSASVGGRVTITCKASQDINKYIAWYQHKPGKGPSLLIHYTSTLQPGVPSRFSGSGSGRDYSFSISNLQPEDIATYYCLQYANLLTFGGGTKLEIKR
As to B1, the “IC50 for inhibition of collagen induced platelet aggregation (human platelet rich plasma)” value (“IC50 for inhibition” below) was 2.3 µg/mL and 2 µg/mL and 1.1 µg/mL.

B2: humanized anti-GPVI Fab VL2 with VH2 (Fab, V domains shown)
VH: B1 VH
VL: B1 VL with N93H
In the case of B2, the “IC50 for inhibition” value was 1.4 µg/mL and 2.4 µg/mL and 2.3 µg/mL.

B3: humanized anti-GPVI Fab VL1 with VH1 (Fab, V domains shown)
VH: B1 VH with N73T
VL: B1 VL
For B3, the “IC50 for inhibition” value was 1.5 µg/mL and 2.3 µg/mL.

B4: humanized anti-GPVI Fab VL1 with VH5 (Fab, V domains shown)
VH: B1 VH with Y103E
VL: B1 VL
Take B4: the “IC50 for inhibition” value was 1.9 µg/mL and 2.3 µg/mL and 1.2 µg/mL.

B5: humanized anti-GPVI Fab VL1 with VH4 (Fab, V domains shown)
VH: B1 VH with G31Y
VL: B1 VL
Consider B5, for which the “IC50 for inhibition” value was 1.6 µg/mL and 1.8 µg/mL and 1.2 µg/mL.

B6: humanized anti-GPVI Fab VL1 with VH3 (Fab, V domains shown)
VH: B1 VH with Q1E, Q5L, Q16G, S42G, R43K, T86R, Q106L
VL: B1 VL
B6: the “IC50 for inhibition” value is 1.5 µg/mL and 1.7 µg/mL.

B7: humanized anti-GPVI Fab VL3 with VH4 (Fab, V domains shown)
VH: B1 VH with G31Y
VL: B1 VL with N93L
Regarding B7, the “IC50 for inhibition” value was 1 µg/mL and 2.3 µg/mL and 2 µg/mL.

B8: humanized anti-GPVI Fab VL3 with VH2 (Fab, V domains shown)
VH: B1 VH
VL: B1 VL with N93L
Turning to B8, the “IC50 for inhibition” value is 1.9 µg/mL and 0.9 µg/mL and 2.1 µg/mL.
